Legend:
HK = biological target: T1, HK (Homo sapiens, UniProt P01042); experiment: solid phase ELISA, gC1q-R peptides supporting HK binding
T1 sequence (P01042 19-644): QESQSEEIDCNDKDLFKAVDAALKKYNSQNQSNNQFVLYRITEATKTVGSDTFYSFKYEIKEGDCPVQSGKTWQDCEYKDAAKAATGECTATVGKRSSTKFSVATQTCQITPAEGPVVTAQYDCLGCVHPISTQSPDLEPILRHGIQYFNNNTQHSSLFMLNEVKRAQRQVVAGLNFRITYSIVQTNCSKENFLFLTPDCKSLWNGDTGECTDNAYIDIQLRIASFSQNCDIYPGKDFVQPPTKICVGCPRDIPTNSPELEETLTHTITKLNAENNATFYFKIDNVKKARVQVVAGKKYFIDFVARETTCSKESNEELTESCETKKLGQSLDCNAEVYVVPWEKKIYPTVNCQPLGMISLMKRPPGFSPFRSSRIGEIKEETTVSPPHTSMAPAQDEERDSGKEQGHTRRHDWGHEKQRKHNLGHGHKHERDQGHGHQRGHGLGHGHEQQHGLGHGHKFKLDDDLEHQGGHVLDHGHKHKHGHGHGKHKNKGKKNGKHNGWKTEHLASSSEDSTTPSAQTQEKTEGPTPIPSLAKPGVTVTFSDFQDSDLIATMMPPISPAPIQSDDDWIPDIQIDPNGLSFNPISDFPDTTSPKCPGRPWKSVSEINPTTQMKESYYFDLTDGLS
Description: By peptide mapping and antibody inhibition studies, we have previously identified a binding site for HK in a gC1q-R domain contained within residues 204-218. […] Thus a possible binding site(s) elsewhere in the molecule was sought. Several peptides were synthesized that correspond with the gC1q-R domains of very high negative charge and, which based on their location in the crystal structure on the solution-face, are hypothesized to interact with solution-phase ligands. […] HK was bound to wells coated with peptide 190-202 and was detected by a monoclonal antibody to HK. […] These antibodies have now been isotyped to be IgG1k.

recombinant gC1q-R = biological target: T2, recombinant gC1q-R (Homo sapiens, UniProt Q07021); experiment: competitive binding ELISA, biotinylated gC1q-R to coated HK peptide
T2 construct: made in house
T2 sequence (Q07021 74-282): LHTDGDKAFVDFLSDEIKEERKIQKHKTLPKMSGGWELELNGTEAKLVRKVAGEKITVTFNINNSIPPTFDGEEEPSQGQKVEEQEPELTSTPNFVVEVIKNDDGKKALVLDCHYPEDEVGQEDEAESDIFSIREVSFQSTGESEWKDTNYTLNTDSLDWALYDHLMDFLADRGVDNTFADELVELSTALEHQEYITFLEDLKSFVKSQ
Procedure: FIG. 5. Panel A: Solution phase HKH20 inhibits binding of gC1q-R to microtiter bound HKH. ELISA wells were first coated with 50 μg/ml peptide HKH20 (SEQ ID NO:11). The wells were then incubated either with biotinylated gC1q-R (5 μg/ml) alone (lane 2) or in the presence of 10 μg/ml (lane 3) or 50 μg/ml (lane 4) HKH20. […] was coated with biotinylated gC1q-R (1 μg/ml) and detected with alkaline-phosphatase conjugated NeutrAvidin. The figure is a representative of two experiments done in duplicate. […] Panel B: HKH20 and histidine-rich fragments bind to gC1q-R. Binding of gC1q-R to HKH-20 (SEQ ID NO:11), HKH-10-1 (residues 479-488; SEQ ID NO:13), HKH-10-2 (residues 484-493; SEQ ID NO:14), and HKH-10-3 (residues 489-498; SEQ ID NO:15). The negative control is binding to BSA.
As discussed earlier, gC1q-R binds HK through a site on domain 5 that is located on the light chain of HK. […] This experiment was performed by competitive binding studies in which ELISA plate wells coated with 100 μg/ml HK peptide were incubated with biotinylated gC1q-R (1 μg/ml) in the presence or absence of increasing concentrations of peptide as a solution phase competitor. […] (FIG. 5B)

endothelial cells = details: cited from earlier work
HUVECs = details: zinc-dependent; read-out: Kd of binding to HUVECs; cited from earlier work

With “EDEVGQEDEAESD (listed as Homo sapiens) [peptide 190-202, gC1q-R 190-202]” the “capture of HK from diluted plasma on peptide-coated wells” value (HK; plasma 1:10 in TBS, detected by monoclonal antibody to HK) was “HK was bound” and the “ability to support HK binding” value (HK; solid phase ELISA) was “strongly supported binding of HK”.

In the case of “HKHGHGHGKHKNKGKKNGKH (listed as Homo sapiens) [HKH20, HK 479-498, domain 5]”, the “inhibition of gC1q-R binding to coated HK peptide by solution phase peptide” value (recombinant gC1q-R; 50 μg/ml HKH20) is given as “totally inhibited”, the “binding of gC1q-R to the peptide” value (recombinant gC1q-R; ELISA wells coated with peptide) is given as “bound strongly” and the “inhibition of the interaction of HK with intact endothelial cells” value (endothelial cells) is given as “inhibit”.

B1: HK: high molecular weight kininogen, 115 kDa non-enzymatic plasma glycoprotein (protein, UniProt P01042 19-644, looked up)
Kininogen-1: T1 sequence (P01042 19-644)
For B1, the Kd (HUVECs) is listed as 40 to 50 nM.
